# Assay results published in article PMC10786891, “Massively parallel profiling of RNA-targeting CRISPR-Cas13d”.
# Substitutions are numbered along the chain they refer to. Names may count otherwise.
# T1: EsCas13d, nuclease-dead (Eubacterium siraeum, UniProt B0MS50, R295A;H300A;R849A;H854A)
# T1 sequence: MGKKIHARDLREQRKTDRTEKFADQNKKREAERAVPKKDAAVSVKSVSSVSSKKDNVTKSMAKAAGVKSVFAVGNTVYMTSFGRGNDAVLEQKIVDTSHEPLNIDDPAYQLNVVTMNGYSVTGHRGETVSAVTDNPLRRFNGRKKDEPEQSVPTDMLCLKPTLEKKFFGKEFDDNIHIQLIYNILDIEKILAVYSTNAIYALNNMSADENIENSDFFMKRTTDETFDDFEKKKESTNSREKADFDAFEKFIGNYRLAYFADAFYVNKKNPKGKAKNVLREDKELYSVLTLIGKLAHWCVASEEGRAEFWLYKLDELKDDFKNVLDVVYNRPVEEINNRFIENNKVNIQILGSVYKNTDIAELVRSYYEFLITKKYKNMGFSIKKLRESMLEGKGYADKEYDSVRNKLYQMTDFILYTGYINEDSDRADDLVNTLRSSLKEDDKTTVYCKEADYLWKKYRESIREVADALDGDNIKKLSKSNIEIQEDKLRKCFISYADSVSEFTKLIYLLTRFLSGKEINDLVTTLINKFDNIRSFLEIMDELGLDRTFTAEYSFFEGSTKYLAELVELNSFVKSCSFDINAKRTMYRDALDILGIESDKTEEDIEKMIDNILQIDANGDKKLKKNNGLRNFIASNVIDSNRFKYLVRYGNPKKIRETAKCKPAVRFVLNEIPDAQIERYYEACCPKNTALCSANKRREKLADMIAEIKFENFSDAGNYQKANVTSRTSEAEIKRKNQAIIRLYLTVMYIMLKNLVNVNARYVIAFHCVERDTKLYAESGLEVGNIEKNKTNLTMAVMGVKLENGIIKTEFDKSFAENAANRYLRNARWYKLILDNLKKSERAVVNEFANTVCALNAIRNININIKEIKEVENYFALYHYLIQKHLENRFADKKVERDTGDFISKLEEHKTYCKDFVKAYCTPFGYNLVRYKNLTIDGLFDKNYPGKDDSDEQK
# B1: target 1 MT 5'PFS GUA 3'PFS CCC (mixed)
# RNA 1: CACCCGUGCAAAAAUGCAGGGGUCUAAAACUGAGCGGAUAACCUCUCUAUGG
# RNA 2: GGGAAUGGAUCCACAUCUACGAAUUCGUACCAUAGAGAGGUUAUCCGCUCACCCAGAUCGGAAGAGCACACGU
# B2: target 1 MT 5'PFS AGA 3'PFS UCC (mixed)
# RNA 1: B1 RNA 1
# RNA 2: B1 RNA 2 with G27A, U28G, C52U
# B3: target 1 MT 5'PFS GUA 3'PFS CCU (mixed)
# RNA 1: B1 RNA 1
# RNA 2: B1 RNA 2 with C54U
# B4: target 1 MT 5'PFS UCG 3'PFS CGA (mixed)
# RNA 1: B1 RNA 1
# RNA 2: B1 RNA 2 with G27U, U28C, A29G, C53G, C54A
# B5: target 1 MT 5'PFS GGG 3'PFS GCU (mixed)
# RNA 1: B1 RNA 1
# RNA 2: B1 RNA 2 with U28G, A29G, C52G, C54U
# B6: target 1 MT 5'PFS AGA 3'PFS ACA (mixed)
# RNA 1: B1 RNA 1
# RNA 2: B1 RNA 2 with G27A, U28G, C52A, C54A
# B7: target 1 MT 5'PFS UCG 3'PFS CGU (mixed)
# RNA 1: B1 RNA 1
# RNA 2: B1 RNA 2 with G27U, U28C, A29G, C53G, C54U
# B8: target 1 MT 5'PFS CAA 3'PFS ACU (mixed)
# RNA 1: B1 RNA 1
# RNA 2: B1 RNA 2 with G27C, U28A, C52A, C54U
# B9: target 1 MT 5'PFS GUA 3'PFS CCA (mixed)
# RNA 1: B1 RNA 1
# RNA 2: B1 RNA 2 with C54A
# B10: target 1 MT 5'PFS AGA 3'PFS UCA (mixed)
# RNA 1: B1 RNA 1
# RNA 2: B1 RNA 2 with G27A, U28G, C52U, C54A
# B11: target 1 insA 3' of 19,insG 3' of 6 (mixed)
# RNA 1: B1 RNA 1
# RNA 2: GGGAAUGGAUCCACAUCUACGAAUUCGUACCAUAAGAGAGGUUAUCCGGCUCACCGAGAUCGGAAGAGCACACGU
# B12: target 1 MT 5'PFS GUG 3'PFS GCG (mixed)
# RNA 1: B1 RNA 1
# RNA 2: B1 RNA 2 with A29G, C52G, C54G
# B13: target 1 MT 5'PFS AGA 3'PFS ACC (mixed)
# RNA 1: B1 RNA 1
# RNA 2: B1 RNA 2 with G27A, U28G, C52A
# B14: target 1 MT 5'PFS ACA 3'PFS UAC (mixed)
# RNA 1: B1 RNA 1
# RNA 2: B1 RNA 2 with G27A, U28C, C52U, C53A
# B15: target 1 MT 5'PFS GUU 3'PFS CUC (mixed)
# RNA 1: B1 RNA 1
# RNA 2: B1 RNA 2 with A29U, C53U
# B16: target 1 MT 5'PFS GUU 3'PFS CUA (mixed)
# RNA 1: B1 RNA 1
# RNA 2: B1 RNA 2 with A29U, C53U, C54A
# B17: target 1 MT 5'PFS GUU 3'PFS CUG (mixed)
# RNA 1: B1 RNA 1
# RNA 2: B1 RNA 2 with A29U, C53U, C54G
# B18: target 1 C6U,C7U (mixed)
# RNA 1: B1 RNA 1
# RNA 2: B1 RNA 2 with C45U, C46U, C54G
# B19: target 1 MT 5'PFS UCG 3'PFS AGA (mixed)
# RNA 1: B1 RNA 1
# RNA 2: B1 RNA 2 with G27U, U28C, A29G, C52A, C53G, C54A
# B20: target 1 MT 5'PFS CCA 3'PFS CUA (mixed)
# RNA 1: B1 RNA 1
# RNA 2: B1 RNA 2 with G27C, U28C, C53U, C54A
# B21: target 1 MT 5'PFS UUA 3'PFS UAU (mixed)
# RNA 1: B1 RNA 1
# RNA 2: B1 RNA 2 with G27U, C52U, C53A, C54U
# B22: target 1 MT 5'PFS AGA 3'PFS ACG (mixed)
# RNA 1: B1 RNA 1
# RNA 2: B1 RNA 2 with G27A, U28G, C52A, C54G
# B23: target 1 MT 5'PFS UAG 3'PFS UCG (mixed)
# RNA 1: B1 RNA 1
# RNA 2: B1 RNA 2 with G27U, U28A, A29G, C52U, C54G
# B24: target 1 MT 5'PFS UGC 3'PFS AAG (mixed)
# RNA 1: B1 RNA 1
# RNA 2: B1 RNA 2 with G27U, U28G, A29C, C52A, C53A, C54G
# B25: target 1 MT 5'PFS AGA 3'PFS UCG (mixed)
# RNA 1: B1 RNA 1
# RNA 2: B1 RNA 2 with G27A, U28G, C52U, C54G
# B26: target 1 insA 3' of 17,insC 3' of 9 (mixed)
# RNA 1: B1 RNA 1
# RNA 2: B11 RNA 2 with A35G, G36A, U45C, C46U, G48C
# B27: target 1 MT 5'PFS GUG 3'PFS GCC (mixed)
# RNA 1: B1 RNA 1
# RNA 2: B1 RNA 2 with A29G, C52G
# B28: target 1 MT 5'PFS AGA 3'PFS UCU (mixed)
# RNA 1: B1 RNA 1
# RNA 2: B1 RNA 2 with G27A, U28G, C52U, C54U
# B29: target 1 MT 5'PFS UAG 3'PFS UCA (mixed)
# RNA 1: B1 RNA 1
# RNA 2: B1 RNA 2 with G27U, U28A, A29G, C52U, C54A
# B30: target 1 MT 5'PFS AGA 3'PFS ACU (mixed)
# RNA 1: B1 RNA 1
# RNA 2: B1 RNA 2 with G27A, U28G, C52A, C54U
# B31: target 1 MT 5'PFS UAG 3'PFS UCC (mixed)
# RNA 1: B1 RNA 1
# RNA 2: B1 RNA 2 with G27U, U28A, A29G, C52U
# B32: target 1 MT 5'PFS ACG 3'PFS CAC (mixed)
# RNA 1: B1 RNA 1
# RNA 2: B1 RNA 2 with G27A, U28C, A29G, C53A
# B33: target 1 MT 5'PFS GGG 3'PFS GCA (mixed)
# RNA 1: B1 RNA 1
# RNA 2: B1 RNA 2 with U28G, A29G, C52G, C54A
# B34: target 1 insA 3' of 8,insA 3' of 3 (mixed)
# RNA 1: B1 RNA 1
# RNA 2: GGGAAUGGAUCCACAUCUACGAAUUCGUACCAUAGAGAGGUUAUACCGCUACACCGAGAUCGGAAGAGCACACGU
# B35: target 1 MT 5'PFS ACA 3'PFS CGG (mixed)
# RNA 1: B1 RNA 1
# RNA 2: B1 RNA 2 with G27A, U28C, C53G, C54G
# B36: target 1 C2G,G13C (mixed)
# RNA 1: B1 RNA 1
# RNA 2: B1 RNA 2 with G39C, C50G, C54G
# B37: target 1 MT 5'PFS UCG 3'PFS AGU (mixed)
# RNA 1: B1 RNA 1
# RNA 2: B1 RNA 2 with G27U, U28C, A29G, C52A, C53G, C54U
# B38: target 1 MT 5'PFS CAA 3'PFS ACG (mixed)
# RNA 1: B1 RNA 1
# RNA 2: B1 RNA 2 with G27C, U28A, C52A, C54G
# B39: target 1 MT 5'PFS CAA 3'PFS ACA (mixed)
# RNA 1: B1 RNA 1
# RNA 2: B1 RNA 2 with G27C, U28A, C52A, C54A
# Target: T1, EsCas13d, nuclease-dead
# Assay: crRNA (strand 1, pre-loaded); Mg2+; 40 mM Tris-HCl pH 7.5, 150 mM NaCl, 6 mM MgCl2, 1 mM DTT, 0.1% Tween-20, 0.2 mg/ml BSA; 25 C; 10 min per concentration, then washed
# Conditions: tags: His6-TwinStrep-SUMO cleaved; N-terminal SNAP kept (SNAP-Surface 488); label: 3' end held by stalled T7 RNA polymerase
row,Binder,Kd [nM]
1,B1,12.6 ± 2.1
2,B2,49.5 ± 19
3,B3,7.3 ± 0.8
4,B4,51 ± 22.5
5,B5,7.45 ± 1.45
6,B6,56 ± 18
7,B7,~100
8,B8,~20.5
9,B9,19.6 ± 2.4
10,B10,61 ± 23
11,B11,25.7 ± 2.3
12,B12,14.4 ± 2
13,B13,47 ± 16
14,B14,25.5 ± 11
15,B15,21.5 ± 4
16,B16,17.6 ± 3.25
17,B17,12.8 ± 1.4
18,B18,6.3 ± 0.5
19,B19,39 ± 11
20,B20,2.5 ± 0.8

row,Binder,Kd [nM]
1,B21,12.7 ± 1.35
2,B22,29.5 ± 7
3,B23,20.1 ± 3.45
4,B24,76 ± 33.5
5,B25,47 ± 17.5
6,B26,12.3 ± 0.6
7,B27,12.7 ± 1.6
8,B28,42 ± 15.5
9,B29,25 ± 5
10,B30,~32
11,B31,63.5 ± 20
12,B32,~36
13,B33,36 ± 13
14,B34,10.4 ± 0.4
15,B35,~70
16,B36,47 ± 3.5
17,B37,50 ± 24.5
18,B38,15 ± 5.5
19,B39,~27
